Measurements reported in paper PMC11044963, “Probing the CRL4^DCAF12 interactions with MAGEA3 and CCT5 di-Glu C-terminal degrons” (PNAS Nexus, 2024).

Tests used:
DCAF12 = assay: NanoBRET with full-length proteins, DCAF12; assay type: cell-based, human; conditions: HEK293T cells; FL protein
Description: To further investigate the DCAF12 interaction with MAGEA3 and CCT5 in cells, we developed a NanoBRET assay, which measures the interaction of […] FL MEAGEA3/CCT5 or C-terminal peptide containing degron sequences ([…]/[…], respectively). When donor and acceptor proteins are in close proximity, the donor excites the acceptor, which then emits fluorescence, allowing for direct measurement of protein–protein interaction in cells.
(§1) HEK293T cells were plated in 96-well plates (2 × 10^4/well) and 4 h later transfected with 0.03 µg/well N-terminally HT-tagged DCAF12 (WT or mutants) or HT alone and 0.001 µg/well N-terminally NL-tagged CCT5 and MAGEA3 (FL or -EE degrons) using X-tremeGene HP transfection reagent (Roche), following the manufacturer's instructions. […] Four hours later, 10 µL of NanoBRET Nano-Glo Substrate solution (8 µL/mL Nano-Glo substrate (Promega) diluted in DMEM/F12 no phenol red, supplemented with 4% FBS, penicillin 100 U/mL, and streptomycin 100 µg/mL) was added, and the signal was read. Donor emission at 450 nm (filter: 450 nm/BP 80 nm) and acceptor emission at 618 nm (filter: 610 nm/LP) were measured within 10 min of substrate addition using CLARIOstar microplate reader (Mandel). […]

[1] = system: DCAF12 mutants K91A, K108A, R203A, R256A, R344A; assay: NanoBRET with full-length proteins, DCAF12 mutants; assay type: cell-based, human; conditions: HEK293T cells; FL protein; all DCAF12 mutations vs WT
Description: Fig. 2. Conserved arginine and lysine residues near DCAF12 central channel participate in MAGEA3 binding in cells. A) DCAF12 electrostatic surface potential analysis showing negatively and positively charged residues colored in red and blue, respectively. On the left, DDB1 contacting surface of DCAF12. On the right, substrate contacting surface with positively charged residues—Arg203, Arg256, and Arg344—highlighted as sticks. Electrostatic potential is shown on a scale of −10 (red) kT/e to 10 (blue). B) Conservation analysis of DCAF12 showing high conservation of the same positively charged residues (represented as sticks) among homologous sequences. Residues were colored on a scale from variable/low conservation (dark teal) to high conservation (magenta). […]
as §1, with “read.” for “read. Donor emission at 450 nm (filter: 450 nm/BP 80 nm) and acceptor emission at 618 nm (filter: 610 nm/LP) were measured within 10 min of substrate addition using CLARIOstar microplate reader (Mandel).”

B1: MAGEA3-FL: full-length melanoma-associated antigen 3 protein (protein)
chain: MPLEQRSQHCKPEEGLEARGEALGLVGAQAPATEEQEAASSSSTLVEVTLGEVPAAESPDPPQSPQGASSLPTTMNYPLWSQSYEDSSNQEEEGPSTFPDLESEFQAALSRKVAELVHFLLLKYRAREPVTKAEMLGSVVGNWQYFFPVIFSKASSSLQLVFGIELMEVDPIGHLYIFATCLGLSYDGLLGDNQIMPKAGLLIIVLAIIAREGDCAPEEKIWEELSVLEVFEGREDSILGDPKKLLTQHFVQENYLEYRQVPGSDPACYEFLWGPRALVETSYVKVLHHMVKISGGPHISYPPLHEWVLREGEE
modifications: left off: NanoLuc, N-terminal, kept
notes: full-length melanoma-associated antigen 3 protein
BRET signal over negative control (DCAF12): 22 fold | decrease of DCAF12 interaction by mutations, NanoBRET [1]: over 50%
